Assay results reported in US20170119790A1, “Agents, Uses and Methods” (CYTOGUIDE A/S, priority 2009, published 2017).

Biological target: T1, mouse CD163 1-5 LKIHDK-->VKVQEE, Y60R mutant (Mus musculus, UniProt Q2VLH6, D69E/H68Q/I67V/K70E/L65V/Y111R)
T1 construct: A mutant (LKIHDK-->VKVQEE, Y60R) in domain 1 of mouse CD163 1-5; host or cells: Lenti-X 293T, transient; captured from supernatant on Ni-NTA
T1 sequence (Q2VLH6 39-577 L65V/I67V/H68Q/D69E/K70E/Y111R): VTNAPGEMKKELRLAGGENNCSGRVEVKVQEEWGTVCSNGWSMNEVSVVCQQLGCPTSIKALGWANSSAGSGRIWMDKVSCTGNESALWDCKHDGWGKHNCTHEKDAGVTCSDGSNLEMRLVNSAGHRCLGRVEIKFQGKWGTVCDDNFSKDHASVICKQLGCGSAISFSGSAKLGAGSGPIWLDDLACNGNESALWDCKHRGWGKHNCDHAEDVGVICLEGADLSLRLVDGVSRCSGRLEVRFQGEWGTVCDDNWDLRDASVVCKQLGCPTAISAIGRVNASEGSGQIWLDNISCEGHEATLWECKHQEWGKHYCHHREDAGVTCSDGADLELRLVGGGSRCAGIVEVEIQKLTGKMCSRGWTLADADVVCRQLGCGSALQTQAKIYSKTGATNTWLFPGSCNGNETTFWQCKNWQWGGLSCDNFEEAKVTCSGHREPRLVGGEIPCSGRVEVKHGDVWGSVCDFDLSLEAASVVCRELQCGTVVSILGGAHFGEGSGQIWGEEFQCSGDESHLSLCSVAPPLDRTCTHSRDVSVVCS
Assay: Western blotting of mouse CD163 and knock in mutant
Format: binding
Description: CD163 domain 1-5 was used for expression of mouse CD163 domain 1-5/V5/His. A mutant (LKIHDK-->VKVQEE, Y60R) in domain 1 of mouse CD163 1-5 was ordered as midiprep at GenScript (Piscataway, N.J., USA). Sequences DNA and protein of mutants are show below (mutant only domain 1).
The mouse CD163 1-5 and the mouse CD163 domain 1 mutant were expressed transient in Lenti-X 293T cells as follows: 1.5 μg of the DNA was diluted in OptiCHOPro SFM (8 mM L-glutamine) to a total volume of 50 μl The DNA was gently mixed with 50 μl of OptiCHOPro SFM containing 1.5 μl Freestyle MAX transfection reagent (Invitrogen, Taastrup, Denmark). After 10 min of incubation at room temperature the complexes were added to 1×10^6 cells in 1 ml. Three days later, the cell supernatants were harvested by centrifugation.
Tris pH 8 buffer, and cell culture supernatants were added 60 μl of Ni-NTA His-bind resin slurry. After 1 hour shaking at 4° C. the supernatants were aspired and each of the purifications were eluted with 90 μl 50 mM Tris pH 8, 25 mM EDTA buffer.
90 μl of each of the eluates were added 30 μl of 4×LDS sample buffer. 20 μl samples of each supernatant and 8 μl SeeBlue plus2 prestained marker were loaded on NuPage 4-12% Bis-Tris-Gels (Invitrogen, Taastrup, Denmark) and the SDS-PAGEs were run with MOPS running buffer according to instructions of the manufacturer (200 V constant for 50 min). […]

B1: MAC2-158: anti-human CD163 murine mAb, binds SRCR domain 1, IQ Products; VH SEQ ID NO: 1, VL SEQ ID NO: 2 (antibody, V domains shown)
VH: DVQLQESGPGLVKPSQSLSLTCTVTGYSITSDYAWNWIRQFPGNKLEWMGYITYSGITNYNPSLKSQISITRDTSKNQFFLQLNSVTTEDTATYYCVSGTYYFDYWGQGTTLTVSS
VL: SVVMTQTPKSLLISIGDRVTITCKASQSVSSDVAWFQQKPGQSPKPLIYYASNRYTGVPDRFTGSGYGTDFTFTISSVQAEDLAVYFCGQDYTSPRTFGGGTKLEIKRA
modifications: Mac2-158 VH; Mac2-158 VL
binding in western blot: did bind
